Patent US8999894 (ALBERT EINSTEIN COLLEGE OF MEDICINE OF YESHIVA UNIVERSITY, dated 2015)

How the values were obtained:
[1] = biological target: T1, recombinant E. coli DNA gyrase (E. coli, UniProt P0AES4 2-875; P0AES6 2-804); assay: cell-based or functional assay
[2] = biological target: T1, recombinant E. coli DNA gyrase; assay: SPR (BIAcore 3000), MfpA amine-coupled to CM5 chip, E. coli DNA gyrase as analyte, 1:1 Langmuir fit

T1 sequence (P0AES4 2-875 limits assumed, one chain of several): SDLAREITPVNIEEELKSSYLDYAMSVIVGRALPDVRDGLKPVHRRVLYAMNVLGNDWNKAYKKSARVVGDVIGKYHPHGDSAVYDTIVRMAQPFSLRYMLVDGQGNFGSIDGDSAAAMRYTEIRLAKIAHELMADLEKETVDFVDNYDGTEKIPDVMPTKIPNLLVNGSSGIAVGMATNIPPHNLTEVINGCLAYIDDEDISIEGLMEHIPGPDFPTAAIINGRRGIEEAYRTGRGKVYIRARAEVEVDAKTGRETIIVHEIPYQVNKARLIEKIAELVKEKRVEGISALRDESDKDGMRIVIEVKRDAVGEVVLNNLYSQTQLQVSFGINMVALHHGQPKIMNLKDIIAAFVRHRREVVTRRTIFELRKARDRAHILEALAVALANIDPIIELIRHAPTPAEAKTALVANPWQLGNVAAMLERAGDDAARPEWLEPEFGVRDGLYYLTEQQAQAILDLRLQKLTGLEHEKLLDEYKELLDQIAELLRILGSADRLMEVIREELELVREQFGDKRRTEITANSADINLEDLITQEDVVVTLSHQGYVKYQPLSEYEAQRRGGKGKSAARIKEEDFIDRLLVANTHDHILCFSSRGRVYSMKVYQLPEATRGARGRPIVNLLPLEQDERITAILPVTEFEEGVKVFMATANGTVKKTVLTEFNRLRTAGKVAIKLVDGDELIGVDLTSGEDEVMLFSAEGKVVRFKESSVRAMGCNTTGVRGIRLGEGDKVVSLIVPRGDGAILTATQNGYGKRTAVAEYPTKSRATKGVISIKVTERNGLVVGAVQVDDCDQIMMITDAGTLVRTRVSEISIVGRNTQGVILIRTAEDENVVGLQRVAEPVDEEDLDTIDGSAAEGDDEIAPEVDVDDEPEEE

B1: Mycobacterium tuberculosis MfpA pentapeptide repeat protein (Rv3361c gene product) (other)
chain: QQWVDCEFTGRDFRDEDLSRLHTERAMFSECDFSGVNLAESQHRGSAFRNCTFERTTLWHSTFAQCSMLGSVFVACRLRPLTLDDVDFTLAVLGGNDLRGLNLTGCRLRETSLVDTDLRKCVLRGADLSGARTTGARLDDADLRGATVDPVLWRTASLVGARVDVDQAVAFAAAHGLCLA
notes: also called MtMfpA
inhibition of ATP-dependent DNA supercoiling by E. coli DNA gyrase, apparent IC50 [1]: ~1200 nM
inhibition of ATP-independent relaxation by E. coli DNA gyrase, apparent IC50 [1]: ~1200 nM
Kd [2]: 460 nM
koff [2]: ~0.0001 s⁻¹
